Results reported in article PMC6978369, “Peptidoglycan reshaping by a noncanonical peptidase for helical cell shape in Campylobacter jejuni” (Nature Communications, 2020).

Assays:
[1] = molecular target: Pgp3 H247A mutant, residues 21-273 (C. jejuni (strain ATCC 33560)); test: crystal structure; H247A protein (10 mg/mL, 20 mM Tris-HCl pH 8.0, 200 mM NaCl) mixed with peptide in a 1:10 molar ratio, 277 K for 1 h; crystals grown at 296 K in 1.8 M ammonium citrate tribasic pH 7.0
[2] = molecular target: T1, Pgp3 (Campylobacter jejuni, UniProt A0AAD2UT50); test: LC/MS turnover assay; type: biochemical; settings: D,D-endopeptidase; 50 mM Tris pH 7.5, 23 °C
T1 construct: gene A8118_01115; residues 21-273 (Glu21 to Gln273 in Methods, Asn273 in Results) without N-terminal 20 residues, of 274 aa; expressed in E. coli Rosetta2 (DE3); Zn enzyme
T1 sequence (A0AAD2UT50 entry or part of it): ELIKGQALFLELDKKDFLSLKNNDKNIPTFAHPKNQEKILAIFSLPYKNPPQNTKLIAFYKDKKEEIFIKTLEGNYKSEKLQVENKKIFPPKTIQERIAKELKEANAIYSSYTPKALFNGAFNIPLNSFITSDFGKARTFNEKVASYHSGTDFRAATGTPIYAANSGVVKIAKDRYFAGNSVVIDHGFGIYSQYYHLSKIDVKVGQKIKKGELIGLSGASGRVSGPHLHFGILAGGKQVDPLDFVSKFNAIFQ

| Compound | stoichiometry N [1] | LC/MS turnover assay [2] |
| --- | --- | --- |
| pentapeptide 1, Ac-L-Ala1-γ-D-Glu2-mDAP3-D-Ala4-D-Ala5 | 1 |  |
| CO[C@@H]1O[C@H](CO)[C@@H](O)[C@H](O[C@H](C)C(=O)N[C@@H](C)C(=O)N[C@H](CCC(=O)N[C@@H](CCC[C@@H](NC(=O)[C@@H](C)NC(=O)[C@H](CCC[C@@H](N)C(=O)O)NC(=O)CC[C@@H](NC(=O)[C@H](C)NC(=O)[C@@H](C)O[C@H]2[C@H](O)[C@@H](CO)O[C@@H](OC)[C@@H]2NC(C)=O)C(=O)O)C(=O)O)C(=O)O)C(=O)O)[C@H]1NC(C)=O [compound 2, crosslinked muramyl tetra-tri peptide] |  | Pgp3 exhibited both D,D-carboxypeptidase and D,D-endopeptidase activities based on LC/MS analysis |
| crosslinked muramyl tetra-tri peptide 2, NAM-L-Ala1-γ-D-Glu2-mDAP3-D-Ala4-mDAP3-γ-D-Glu2-Ala1-NAM | 1 |  |
